This is an account of results in patent publication US20130330358A1, “CRYSTAL STRUCTURE AND PEPTIDE INHIBITORS OF HAUSP DEUBIQUITINASE” (priority 2011, published 2013).

The experiment addresses HAUSP TRAF domain (HAUSP^62-205) (human). Briefly: ITC, titration against HAUSP TRAF domain, 20 °C.

As for LVQELQEEKPSSSHL (modifications not checked) [MDM2^137-152 peptide], the Ka was found to be 90000 M⁻¹.

EQGPADDPGEGPSTG (modifications not checked) [EBNA1^435-449 peptide] registered a n (stoichiometry) of 0.81.

For EGASTSGM (modifications not checked) [vIRF4^209-216 peptide], the n (stoichiometry) came out at 0.81.
